Values of other authors as cited in patent US20260345619A1 (Principia Biopharma Inc., priority 2023, published 2026).

Details: for efficacy: severe asthma, eosinophilic phenotype

B1: mepolizumab: anti-interleukin (IL)-5 agent (antibody, chains of the INN, looked up, V domains shown)
VH: QVTLRESGPALVKPTQTLTLTCTVSGFSLTSYSVHWVRQPPGKGLEWLGVIWASGGTDYNSALMSRLSISKDTSRNQVVLTMTNMDPVDTATYYCARDPPSSLLRLDYWGRGTPVTVSS
VL: DIVMTQSPDSLAVSLGERATINCKSSQSLLNSGNQKNYLAWYQQKPGQPPKLLIYGASTRESGVPDRFSGSGSGTDFTLTISSLQAEDVAVYYCQNVHSFPFTFGGGTKLEIK
High eosinophilic group (Bel E H et al., 2014)
  patients with no decrease in oral corticosteroid (OCS) dose or lack of asthma control: 36%
  efficacy: have shown efficacy

B2: reslizumab: anti-interleukin (IL)-5 agent (antibody, chains of the INN, looked up, V domains shown)
VH: EVQLVESGGGLVQPGGSLRLSCAVSGLSLTSNSVNWIRQAPGKGLEWVGLIWSNGDTDYNSAIKSRFTISRDTSKSTVYLQMNSLRAEDTAVYYCAREYYGYFDYWGQGTLVTVSS
VL: DIQMTQSPSSLSASVGDRVTITCLASEGISSYLAWYQQKPGKAPKLLIYGANSLQTGVPSRFSGSGSATDYTLTISSLQPEDFATYYCQQSYKFPNTFGQGTKVEVK
  efficacy: have shown efficacy
